Data from the supplement of paper PMC5998384.

Assays:
HeLa Kyoto [1] = assay: melting temperature (median over replicates), in situ; higher = more thermally stable
HeLa Kyoto [2] = assay: solubility change mitosis vs G1/S (difference of NP-40 vs SDS log2 ratios) (log2 ratio difference); higher = more soluble in mitosis
HeLa Kyoto [3] = assay: solubility in G1/S (NP-40 vs SDS abundance) (log2 ratio); higher = more soluble; conditions: cell cycle stage: G1/S
HeLa Kyoto [4] = assay: thermal stability score vs G1/S (z-score of summed log2 fold changes over temperatures); higher = more thermally stable than in G1/S
[5] = cell cycle stage: early G1 (4.5 h after nocodazole release)
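For melting temperature (median over replicates), in situ in this document: HeLa Kyoto cells synchronized by double thymidine or nocodazole block, proteins quantified by TMT10plex mass spectrometry, three independent biological replicates.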
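For solubility change mitosis vs G1/S (difference of NP-40 vs SDS log2 ratios) in this document: synchronized HeLa Kyoto cells (double thymidine block for G1/S, nocodazole release for mitosis), protein amounts in NP-40 versus SDS lysates quantified by mass spectrometry, three biological replicates.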
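For solubility in G1/S (NP-40 vs SDS abundance) in this document: HeLa Kyoto cells arrested at G1/S by double thymidine block, proteins quantified by TMT10plex mass spectrometry in mild NP-40 versus SDS extracts, three biological replicates.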
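For thermal stability score vs G1/S (z-score of summed log2 fold changes over temperatures) in this document: synchronized HeLa Kyoto cells, proteins quantified by TMT10plex mass spectrometry, three biological replicates, mitosis taken 0.5 h after nocodazole release, G1/S directly after double thymidine block.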

Sequence	melting temperature (HeLa Kyoto [1]; cell cycle stage: G1/S) [°C]	melting temperature (HeLa Kyoto [1]; cell cycle stage: mitosis) [°C]	solubility change mitosis (log2) (HeLa Kyoto [2])	solubility in G1/S (log2) (HeLa Kyoto [3])	thermal stability score (HeLa Kyoto [4]; [5])	thermal stability score (HeLa Kyoto [4]; cell cycle stage: mitosis)
MMTSVGTNRARGNWEQPQNQNQTQHKQRPQATAEQIRLAQMISDHNDADFEEKVKQLIDITGKNQDECVIALHDCNGDVNRAINVLLEGNPDTHSWEMVGKKKGVSGQKDGGQTESNEEGKENRDRDRDYSRRRGGPPRRGRGASRGREFRGQENGLDGTKSGGPSGRGTERGRRGRGRGRGGSGRRGGRFSAQGMGTFNPADYAEPANTDDNYGNSSGNTWNNTGHFEPDDGTSAWRTATEEWGTEDWNEDLSETKIFTASNVSSVPLPAENVTITAGQRIDLAVLLGKTPSTMENDSSNLDPSQAPSLAQPLVFSNSKQTAISQPASGNTFSHHSMVSMLGKGFGDVGEAKGGSTTGSQFLEQFKTAQALAQLAAQHSQSGSTTTSSWDMGSTTQSPSLVQYDLKNPSDSAVHSPFTKRQAFTPSSTMMEVFLQEKSPAVATSTAAPPPPSSPLPSKSTSAPQMSPGSSDNQSSSPQPAQQKLKQQKKKASLTSKIPALAVEMPGSADISGLNLQFGALQFGSEPVLSDYESTPTTSASSSQAPSSLYTSTASESSSTISSNQSQESGYQSGPIQSTTYTSQNNAQGPLYEQRSTQTRRYPSSISSSPQKDLTQAKNGFSSVQATQLQTTQSVEGATGSAVKSDSPSTSSIPPLNETVSAASLLTTTNQHSSSLGGLSHSEEIPNTTTTQHSSTLSTQQNTLSSSTSSGRTSTSTLLHTSVESEANLHSSSSTFSTTSSTVSAPPPVVSVSSSLNSGSSLGLSLGSNSTVTASTRSSVATTSGKAPPNLPPGVPPLLPNPYIMAPGLLHAYPPQVYGYDDLQMLQTRFPLDYYSIPFPTPTTPLTGRDGSLASNPYSGDLTKFGRGDASSPAPATTLAQPQQNQTQTHHTTQQTFLNPALPPGYSYTSLPYYTGVPGLPSTFQYGPAVFPVAPTSSKQHGVNVSVNASATPFQQPSGYGSHGYNTGVSVTSSNTGVPDISGSVYSKTQQSFEKQGFHSGTPAASFNLPSALGSGGPINPATAAAYPPAPFMHILTPHQQPHSQILHHHLQQDGQTGSGQRSQTSSIPQKPQTNKSAYNSYSWGAN [UBAP2L]	55.5	54.2	0.0243	-0.0783	-3.92	-3.52
MMTSVSSDHCRGAREKPQISAAQSTQPQKQVVQATAEQMRLAQVIFDKNDSDFEAKVKQLMEVTGKNQDECIVALHDCNGDVNKAINILLEGNSDTTSWETVGCKKKNFAKENSENKENREKKSEKESSRGRGNNNRKGRGGNRGREFRGEENGIDCNQVDKPSDRGKRARGRGFGRGRGRGAGRFSTQGMGTFNPADYSDSTSTDVCGTKLVVWEAAQNGADEGTELASNTHNIAQDLSNKSSYGLKGAWKNSVEEWTTEDWTEDLSETKVFTASSAPAENHILPGQSIDLVALLQKPVPHSQASEANSFETSQQQGFGQALVFTNSQHNNQMAPGTGSSTAVNSCSPQSLSSVLGSGFGELAPPKMANITSSQILDQLKAPSLGQFTTTPSTQQNSTSHPTTTTSWDLKPPTSQSSVLSHLDFKSQPEPSPVLSQLSQRQQHQSQAVTVPPPGLESFPSQAKLRESTPGDSPSTVNKLLQLPSTTIENISVSVHQPQPKHIKLAKRRIPPASKIPASAVEMPGSADVTGLNVQFGALEFGSEPSLSEFGSAPSSENSNQIPISLYSKSLSEPLNTSLSMTSAVQNSTYTTSVITSCSLTSSSLNSASPVAMSSSYDQSSVHNRIPYQSPVSSSESAPGTIMNGHGGGRSQQTLDTPKTTGPPSALPSVSSLPSTTSCTALLPSTSQHTGDLTSSPLSQLSSSLSSHQSSLSAHAALSSSTSHTHASVESASSHQSSATFSTAATSVSSSASSGASLSSSMNTANSLCLGGTPASASSSSSRAAPLVTSGKAPPNLPQGVPPLLHNQYLVGPGGLLPAYPIYGYDELQMLQSRLPVDYYGIPFAAPTALASRDGSLANNPYPGDVTKFGRGDSASPAPATTPAQPQQSQSQTHHTAQQPFVNPALPPGYSYTGLPYYTGMPSAFQYGPTMFVPPASAKQHGVNLSTPTPPFQQASGYGQHGYSTGYDDLTQGTAAGDYSKGGYAGSSQAPNKSAGSGPGKGVSVSSSTTGLPDMTGSVYNKTQTFDKQGFHAGTPPPFSLPSVLGSTGPLASGAAPGYAPPPFLHILPAHQQPHSQLLHHHLPQDAQSGSGQRSQPSSLQPKSQASKPAYGNSPYWTN [UBAP2]	57.3	56.8	-0.0536	0.0134	-3.11	-3.84
MNAAASSYPMASLYVGDLHSDVTEAMLYEKFSPAGPVLSIRVCRDMITRRSLGYAYVNFQQPADAERALDTMNFDVIKGKPIRIMWSQRDPSLRKSGVGNVFIKNLDKSIDNKALYDTFSAFGNILSCKVVCDENGSKGYAFVHFETQEAADKAIEKMNGMLLNDRKVFVGRFKSRKEREAELGAKAKEFTNVYIKNFGEEVDDESLKELFSQFGKTLSVKVMRDPNGKSKGFGFVSYEKHEDANKAVEEMNGKEISGKIIFVGRAQKKVERQAELKRKFEQLKQERISRYQGVNLYIKNLDDTIDDEKLRKEFSPFGSITSAKVMLEDGRSKGFGFVCFSSPEEATKAVTEMNGRIVGSKPLYVALAQRKEERKAHLTNQYMQRVAGMRALPANAILNQFQPAAGGYFVPAVPQAQGRPPYYTPNQLAQMRPNPRWQQGGRPQGFQGMPSAIRQSGPRPTLRHLAPTGSECPDRLAMDFGGAGAAQQGLTDSCQSGGVPTAVQNLAPRAAVAAAAPRAVAPYKYASSVRSPHPAIQPLQAPQPAVHVQGQEPLTASMLAAAPPQEQKQMLGERLFPLIQTMHSNLAGKITGMLLEIDNSELLHMLESPESLRSKVDEAVAVLQAHHAKKEAAQKVGAVAAATS [PABPC4]	50.3	49.6	0.0456	0.0374	-1.92	-1.27
MNEAMATDSPRRPSRCTGGVVVRPQAVTEQSYMESVVTFLQDVVPQAYSGTPLTEEKEKIVWVRFENADLNDTSRNLEFHEIHSTGNEPPLLIMIGYSDGMQVWSIPISGEAQELFSVRHGPIRAARILPAPQFGAQKCDNFAEKRPLLGVCKSIGSSGTSPPYCCVDLYSLRTGEMVKSIQFKTPIYDLHCNKRILVVVLQEKIAAFDSCTFTKKFFVTSCYPCPGPNMNPIALGSRWLAYAENKLIRCHQSRGGACGDNIQSYTATVISAAKTLKSGLTMVGKVVTQLTGTLPSGVTEDDVAIHSNSRRSPLVPGIITVIDTETVGEGQVLVSEDSDSDGIVAHFPAHEKPVCCMAFNTSGMLLVTTDTLGHDFHVFQILTHPWSSSQCAVHHLYTLHRGETEAKVQDICFSHDCRWVVVSTLRGTSHVFPINPYGGQPCVRTHMSPRVVNRMSRFQKSAGLEEIEQELTSKQGGRCSPVPGLSSSPSGSPLHGKLNSQDSYNNFTNNNPGNPRLSPLPSLMVVMPLAQIKQPMTLGTITKRTGPYLFGAGCFSIKAPCKVKPPPQISPSKSMGGEFCVAAIFGTSRSWFANNAGLKREKDQSKQVVVESLYIISCYGTLVEHMMEPRPLSTAPKISDDTPLEMMTSPRASWTLVRTPQWNELQPPFNANHPLLLAADAVQYYQFLLAGLVPPGSPGPITRHGSYDSLASDHSGQEDEEWLSQVEIVTHTGPHRRLWMGPQFQFKTIHPSGQTTVISSSSSVLQSHGPSDTPQPLLDFDTDDLDLNSLRIQPVRSDPVSMPGSSRPVSDRRGVSTVIDAASGTFDRSVTLLEVCGSWPEGFGLRHMSSMEHTEEGLRERLADAMAESPSRDVVGSGTELQREGSIETLSNSSGSTSGSIPRNFDGYRSPLPTNESQPLSLFPTGFP [BCAS3]	52.9	52.2	-0.229	-0.0403	-0.731	-1.02
MNEEYDVIVLGTGLTECILSGIMSVNGKKVLHMDRNPYYGGESASITPLEDLYKRFKIPGSPPESMGRGRDWNVDLIPKFLMANGQLVKMLLYTEVTRYLDFKVTEGSFVYKGGKIYKVPSTEAEALASSLMGLFEKRRFRKFLVYVANFDEKDPRTFEGIDPKKTTMRDVYKKFDLGQDVIDFTGHALALYRTDDYLDQPCYETINRIKLYSESLARYGKSPYLYPLYGLGELPQGFARLSAIYGGTYMLNKPIEEIIVQNGKVIGVKSEGEIARCKQLICDPSYVKDRVEKVGQVIRVICILSHPIKNTNDANSCQIIIPQNQVNRKSDIYVCMISFAHNVAAQGKYIAIVSTTVETKEPEKEIRPALELLEPIEQKFVSISDLLVPKDLGTESQIFISRTYDATTHFETTCDDIKNIYKRMTGSEFDFEEMKRKKNDIYGED [GDI2]	55.2	54.7	-0.174	0.218	-1.03	-0.13
MNFLRGVMGGQSAGPQHTEAETIQKLCDRVASSTLLDDRRNAVRALKSLSKKYRLEVGIQAMEHLIHVLQTDRSDSEIIGYALDTLYNIISNEEEEEVEENSTRQSEDLGSQFTEIFIKQQENVTLLLSLLEEFDFHVRWPGVKLLTSLLKQLGPQVQQIILVSPMGVSRLMDLLADSREVIRNDGVLLLQALTRSNGAIQKIVAFENAFERLLDIISEEGNSDGGIVVEDCLILLQNLLKNNNSNQNFFKEGSYIQRMKPWFEVGDENSGWSAQKVTNLHLMLQLVRVLVSPTNPPGATSSCQKAMFQCGLLQQLCTILMATGVPADILTETINTVSEVIRGCQVNQDYFASVNAPSNPPRPAIVVLLMSMVNERQPFVLRCAVLYCFQCFLYKNQKGQGEIVSTLLPSTIDATGNSVSAGQLLCGGLFSTDSLSNWCAAVALAHALQENATQKEQLLRVQLATSIGNPPVSLLQQCTNILSQGSKIQTRVGLLMLLCTWLSNCPIAVTHFLHNSANVPFLTGQIAENLGEEEQLVQGLCALLLGISIYFNDNSLESYMKEKLKQLIEKRIGKENFIEKLGFISKHELYSRASQKPQPNFPSPEYMIFDHEFTKLVKELEGVITKAIYKSSEEDKKEEEVKKTLEQHDNIVTHYKNMIREQDLQLEELRQQVSTLKCQNEQLQTAVTQQVSQIQQHKDQYNLLKIQLGKDNQHQGSYSEGAQMNGIQPEEIGRLREEIEELKRNQELLQSQLTEKDSMIENMKSSQTSGTNEQSSAIVSARDSEQVAELKQELATLKSQLNSQSVEITKLQTEKQELLQKTEAFAKSVEVQGETETIIATKTTDVEGRLSALLQETKELKNEIKALSEERTAIKEQLDSSNSTIAILQTEKDKLELEITDSKKEQDDLLVLLADQDQKILSLKNKLKDLGHPVEEEDELESGDQEDEDDESEDPGKDLDHI [USO1]	51.2	50.6	-0.0652	0.289	2.79	1.73
MNFRQLLLHLPRYLGASGSPRRLWWSPSLDTISSVGSWRGRSSKSPAHWNQVVSEAEKIVGYPTSFMSLRCLLSDELSNIAMQVRKLVGTQHPLLTTARGLVHDSWNSLQLRGLVVLLISKAAGPSSVNTSCQNYDMVSGIYSCQRSLAEITELIHIALLVHRGIVNLNELQSSDGPLKDMQFGNKIAILSGDFLLANACNGLALLQNTKVVELLASALMDLVQGVYHENSTSKESYITDDIGISTWKEQTFLSHGALLAKSCQAAMELAKHDAEVQNMAFQYGKHMAMSHKINSDVQPFIKEKTSDSMTFNLNSAPVVLHQEFLGRDLWIKQIGEAQEKGRLDYAKLRERIKAGKGVTSAIDLCRYHGNKALEALESFPPSEARSALENIVFAVTRFS [PDSS2]	53.5	54.1	0.169	0.217	0.42	-0.202
